assay: soluble fraction after stress (log2 fold change); higher = more stays soluble; pooled small domains, quantitative proteomics; conditions: stress: pH 4
In short: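 Pooled custom libraries of small protein domains were subjected to pH 4 and measured by high-throughput quantitative proteomics. The log2 fold change in soluble amount per domain is reported, higher values meaning more remained soluble. This is used as a measure of aggregation propensity.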

Sequence	soluble fraction (log2)
HMRVTEVSYDKFLDMLSGGQVTVVELQENERELYFKAADENGAERIYSTGVFPDADLQKRLSESGVTF	-1.19
HMHSFFGDNIKKLRTAKKMSQEQLADIFGITKAGISYWETGRSEPNFATVQKLADFFGVTTSDLLGEA	0.187
HMPPNVLSEREQEVLQLAADGMSNKEMGSELYIAPTTVRDHMQSIMRKLQVNSRTAAAVAGLKLGLLD	-0.422
HMLSYDDTVVIGRNLLENAMKQKNIALEQLTDEVLARLAKELQVESVEAMYAGIGSGKRPSSFIINRLEAH	-0.454
HMDFGHWAAHKLEQMSEYRLRHGEAVAIGIALDVLYSVRQGLLARPAAERILSLLERLGFTLFDPELKS	-0.291
HMSKQIEVPDVTDMTVSDAIDVLQDKGFVVSDEQKEVASSEIEEGRVVRTSPAVGSKRKDGTVVTLYVSI	-0.479
HMREPDPELTASIKSMAESNDQSERLVALAQLSEQRAVDPEVADQILLIALLDEDPIIRGQAVYA	0.0401
HMSQDVLLKRSGDQIEVKITEVGEDYLKYKKKGFENGPDFKINTSDVFMVTFANGEKMMFEES	-2.15
HMATPTEHQLQAQARAVVEKAERLLDRASADDREDIINLIEKITDALAAEDFTAVKAPLAELSDILFYLE	-0.27
HMSYSYIYNYALKVKMDISSTGGKKPYAYYYYDHSYKLAEEILSLSEETESIELQNKYDELKDFYENP	-1.04
HMAADLIGLEARVTLPLTEDQRGFIETSVRGSLVRRAALSASGRLDRGQRVVILRSEGTTLIVDAL	-0.372
HMNAEQLAQVRRQKIGFIFQDFRLFPEYTVRDNILIPFYLDHRAPDEQMLHKLTGILGIAGKLHSRPAQL	-0.0979
HMGKPAGLIRELGNHPEDEKPVTLNNGRFGPYVKHGKVMASLTKADSPDDITFDRAIELIAIKAEKMAAKG	-0.00901
HMKTTKESLLEYIQREVFTDSIHKEGLSTNEIADAFQIQRSNVSSLLNTLVKEGKLEKTTGRPVLYRIPEK	0.0777
HMELLPFEFARANRVLLRVNESDLVVSPDANHSAVTEILRLNNNIETIKSVDAEAFDKILSSIYSG	-2
HMEKYTDDLEIAAEIARLETLMEGNGRVLIRPSGTEPLVRVMIEGNDIEQITKLAEDLAALLNKRF	-0.842
HMEDLGYVKVASQTAAIRKSAAVQAGQIGTVHEGETYRYLGEEEGWYLVEYNGQKAYISWDDGEL	-0.553
HMLPYGDRRRHTDNTISRIRELAAALDDSGIADRLNQDGYVTPEGKPFTYAGVRWIRYKYDISGPYERN	-0.364
HMDQVLHQLVEVLRRSEIRISPAETLDAFKVLRNVGIDNKSLLREALALTLAKSIHEKIIFYETFDEFFT	-1.08
HMRSMEKRLTAKVKRVQEGVQAKSQAGEQPFEVVKLMQRFPKLMQFGKHAEAETVLDKALELLGEE	-0.373
HMGTNTTGWIKIADDWKYIDSNGEYTVNDWRQSADGGWYYLGYNGNMLKNQTTPDGYYVDAEGLWDGMSPA	-2.31
HMISKQQRQALILDIIQKQSITSQEALLTELQRHHVMTTQTTVSRDIRALGIVRIKDVNGELSYQQLQ	-0.0545
HMINIFKVKKAMEEIFASEWEDSPYTDQKISQILWSRGFSVSTGLVEKYRGQMGVPDANSRLNLN	-1.39
HMATPIAGTKYTLNNTPVYGTEKGPSIGKRSGIYYTWDATVRNGRIRMTNSPARVGVPWQVSFWVEVNKL	-0.195
HMDAQEAAWARKMMETLPEKQKLSVALRIEEGLSFKEIGEIIGSSEGAARVNYFHGIRRLRELL	-0.768

Sequence	soluble fraction (log2)
HMQNGNLVDVYLNWRGKYYAIKMFFPNSKMPRRSDVQDQIVKVYPDARVQSFQVSKYVPGQPFL	-0.431
HMAVFSKKQIFDTAFALFESKGLEAITARNLGKALSSSPAPIYAHYSSITELKNELISVAKDR	-0.692
HMPDLSAEERNIVEALQKSNDLQVNLIAVKTGMDMGTLSATLFGLEMKGLVKLMAGGTYHLI	0.191
HMEETLLLRESVRSALAMLAPTLRITLEMYVYRQLSPTEIALRSGVSISMVRRRLGYGLYKLRTQLIDA	-0.394
HMESPVNTLPEDQRAWYKALPPELSTKTAVEAGAGVGVSERTVKRLLSNQTFFINLQRGNYRKRH	0.314
HMKVEFDAMDKRILELMAKEYDTVLMARHLPLTPIVIDVRKKRIREVLNLPDATDAEIVIEAKEKDII	-1.47
HMDRENNITAGREILEKELSRLALNMKMVNLQDYAARFNVKHSDDILAGIGAGDIRPAHIVNAIAEKLT	-0.304
HMNMFDMRKTGARISQLRRAAGLTQAELAEKLGISYQAVSSWERGSNMPDIGKLLDLARILNTTVDALLSA	0.309
HMVDIIMDLLEAVAQARPADAFIKSLHIQYQERGGLSKKQLQGLYGKAAKTAGIPPGKLATLEAIILKRP	-0.0377
HMTGNWRQMHKVKSKETIYGIAKEYGITVDELTKANPGMEAPGYTLKKGDYIFIPYATADANV	0.0315
HMLELTVSDKMARLMAWRNRRRVNLSDQELHRIAAAPKQSPESILKMLPGFLQDSVPEIWAELTGGRP	-0.0678
HMDPSVTGLLTRLGISPQTAQELAGQYEEPYILEKIAIVEAHPEYVKNAAGFVITALQEDWKD	-1.37
HMKGQLVVFPNPASSNDMVRFNKNISFSIFDITGHLVDTKRNVNELSVGNLEAGTYILRTEQGDVLRMVI	-0.904
HMAPGIGDSKYFSHIYEMKHIDTIIDNDKGDRLIEHFEIQDTPFIFTKHWTSAFGFSKRQQEIITDYLSYF	-0.0653
HMAADRRKAERPLIDGQAVMDRFEVGPGPMVGKALKFLLALKRAEPDLDLAGTEERLDAWWNEQL	0.289
HMLTNNYKNDKALRFAKNHGIHESNILKLVSLYENAPEKGFNAQSIAELLGITPRSASRILVKLLQHNLIR	0.381
HMSETAEFIIQVNGKVRAKLQLPTDISKEEIQKLALADENVQKYLNGEPRKIIFPPNTRLVSIV	-0.0446
HMQITTVSPKNYAEAELIGQRFREGNPVVMDLSKLDSDLGQRLVDFASGLVFALNGTVERIAKKVFLLSP	-0.748
HMVNFKLIGNKIAEARKKVNISQAQLAQRLFISSQAVGKWERGESMPDIITFNRLAEILGVDLNYFSE	0.266
HMLYEDVQVPNVRYWKSRDAKKQLEDLGLRVLTEHVNDAYIQSDQVIRTSPEIGDTLRTGDTVTLYVSDG	0.146
HMNEPMITEVKRINYGSIKEIAKNLDVFKGKNGTVIIDERTNTLILTDLSENIEKMLWSIEITD	-0.855
HMISKRFQIDEDNSNKRIDIFLTQSLDSISRGIVQQLILENKVEVNGGPVKRNYLIKIGDVIDVKIDL	-0.608
HMGISVEVPDLKNMSVAEAGSLLKNSGLSYAVVDSDYVKTISPGKILDQNPGRGLRVKKGRIVYLTINSL	-0.283
HMSNGEWQQGSDGRWWYKFSDGTYPKNKVETIGGKKYGFDSEGWMLANTTKEFSGTTYSFGADGVATS	-0.0709
HMYPTPAAANRHFLDKWGHQEAYLGKVLNSRSRASEILNGKRPLSLSDLRTLRDNLGIPVDLLL	-0.421

Sequence	soluble fraction (log2)
HMQQAVTMQKPGRLLRNADGNGGAVRDLDVGMMLYPTGNRSELMWEVDDELGNRGWVNSTLFGLS	-0.585
HMSDYLGSLSHEEKMIFNHFDEDSSTIENMAKKTELKPELISQIFLNLELRGFLRQTEGGLYEKI	-1.13
HMKNVEEMILGKLKRKVSENLENASFEEIILVDAEKSVYKGIIKANYIEYYFRVNLSTGEVLSWKLK	-0.755
HMDLPREKRIEIGLTYIYGIGLKTSQKILAATGIDPNTRVKDLDETTVSKLREYIDHNYRVEGELRS	-0.217
HMTKGDRIKARREELGLTQTDLAEAISSTKQNIYKYENNIISNIPSDKVEAIAEVLKISPAYLMGWGDE	-0.594
HMNDSGIIGVVINDHEKYEGHVLEDGFISSSLSALSREIDVAGYFMMVKTVVYEGFFQELKGIGNV	0.079
HMVQVHEWTNKAGRTIKAKFVRGDAQSVTIFLGGRNFVLKIADLSEESQALARKLSAPPPPP	0.0306
HMLKQLGRQEGRQEGAVDALRTVLALQIEQRFGPLDPTVQALIVAADIDALQRALSRVAVVSDLGAVFPP	-0.862
HMVAGHLQEKNGQFYAVLSYKDTKGKRRTKWVPTGLMVRGNKKRAEAMLNDIRRKFVPPEQED	0.249
HMTDVGLEAAKAAALKHAGLSADQVTGLTAKLDWDDGQRVYEVDFWQGSTEYEYEINADGTVRQYESEAH	-0.469
HMTMNYYDILSIKRDATLEEIQKAYKEKSFQFHPDFNKGISDDSMFRIIKEAYETLSDTEKRNQYDASLNK	-0.134
HMNEIDLEAAKRIALQNAGVESADAAFTKAQLDYDDGVAEYEIEFVAGSTKYEYEISAANGTVLKSSKESV	0.243
HMNNDFIVKSTDSHKVNLRSQPDTHADIIKRLDDHTIVEKLKTVRKNWYLVQLKDTTTQGYVHKSQLERV	0.21
HMGQAELPYSEFLREVNNGQVKSVIIEGSEITGFYKTSGTSFNVIAPDDPKLVERLMAQGVEVRAQPA	0.239
HMPKTLTEAAYEDIKQWILEGEITPGSKISLEDTASRLEVSMTPIREALTKLQQEGLVEYIPRAGWRASK	-0.294
HMDINEIILKVASEKKTFKTSDVLEALDNNYTKQHVSALISAMVKKGILVKAGSTAKSTYALPENASLL	0.0858
HMLSEKELLELLNRAKSNYNGITKKGIEAIALKYQGYSNVEIANLYHVKANHISAWISRARSRLKADY	-0.0621
HMDDFTEVLLQYLKDHDGYSSIHDKTDAETIYNTFGVSKKTFKKAVGDLYKKRLIVLEEEGIRLLG	-0.586
HMRYQIAEARKLRDITQAELAEKMGTTQQTIQRYETNQVNIRMDKMIEMSEILNVSLAYLLGMSSSPEL	0.122
HMQNLSELAYVNLRDALMQGQMKPGEELPLRPISRSFGISATPMREALLRLVTESALEMDSRGRISVP	-0.183
HMGDLKSLIQATMDDAGISIKPDAMDYLISHLGSDRLTTRAELDKLILYAGADDKLDLDSVVELVG	-0.794
HMNTIFSVNGPVVKVKDTKDFSMMEMVYVGEKKLIGEVIGITESFTTIQVYEVTTGLKVGEPVYTTGAPM	0.166
HMDNPKGNLQEAVQAKGNEPIEYRVLNVDGPDHAREFKIAVFIGGKRKGTGVGNSKKKAEEIAAEKAFKRM	-0.189
HMSEQLVGTVGHITVGTARTASPAEAKFLDAFEQPHYLLVEPIEPKDIFQQGDKVVLVKKQHHSWLATRYI	0.0779
HMIGDYALILNIKGGSDWYLGNRVELLFTDGTSKIVTTDKDYNAKKDMVPTQIVTYKVNDNGEYSLKALPT	-1.2

Reference: the domain aggregation screens of Martell et al. (2025)
